Sequences and labels used below:
B1: FAS-associated factor 1 (Homo sapiens), Q9UNN5-1 (parent)
chain: MASNMDREMILADFQACTGIENIDEAITLLEQNNWDLVAAINGVIPQENGILQSEYGGETIPGPAFNPASHPASAPTSSSSSAFRPVMPSRQIVERQPRMLDFRVEYRDRNVDVVLEDTCTVGEIKQILENELQIPVSKMLLKGWKTGDVEDSTVLKSLHLPKNNSLYVLTPDLPPPSSSSHAGALQESLNQNFMLIITHREVQREYNLNFSGSSTIQEVKRNVYDLTSIPVRHQLWEGWPTSATDDSMCLAESGLSYPCHRLTVGRRSSPAQTREQSEEQITDVHMVSDSDGDDFEDATEFGVDDGEVFGMASSALRKSPMMPENAENEGDALLQFTAEFSSRYGDCHPVFFIGSLEAAFQEAFYVKARDRKLLAIYLHHDESVLTNVFCSQMLCAESIVSYLSQNFITWAWDLTKDSNRARFLTMCNRHFGSVVAQTIRTQKTDQFPLFLIIMGKRSSNEVLNVIQGNTTVDELMMRLMAAMEIFTAQQQEDIKDEDEREARENVKREQDEAYRLSLEADRAKREAHEREMAEQFRLEQIRKEQEEEREAIRLSLEQALPPEPKEENAEPVSKLRIRTPSGEFLERRFLASNKLQIVFDFVASKGFPWDEYKLLSTFPRRDVTQLDPNKSLLEVKLFPQETLFLEAKE

The variants in this experiment derive from B1. The settings on record: with tera_human VCP.
In the case of F619A, the “effect of a mutation on the interaction” value is listed as “decreasing interaction”.
Take P640N: the “effect of a mutation on the interaction” value is “decreasing interaction”.
In the case of R621A, the “effect of a mutation on the interaction” value was “decreasing interaction”.
With R579A, the “effect of a mutation on the interaction” value is given as “decreasing interaction”.
On to P620N, for which the “effect of a mutation on the interaction” value is “decreasing interaction”.

The record behind these values is IntAct's records for PubMed 21645854.
